According to patent US20150231240A1, “ANTI-C16ORF54 ANTIBODIES AND METHODS OF USE THEREOF” (priority 2012, published 2015):
Substitutions are numbered along the chain they refer to.

B1: R29-7-1C (antibody, V domains shown)
VH: DVQLQESGPGLVKPSQSLSLTCTVTGYSITSDYAWNWIRQFPGNKLEWMGYISYSGSIRYNPSLKSRISITRDTSKNQFFLQLNSVTTEDTATYYCAREKYDNYYYAMDYWGQGTSVTVSS
VL: DIVMSQSPSSLAVSVGEKVTLSCKSSQNLLYSTNQKNYLAWYQQKPGQSPKLLIYWASTRESGVPDRFTGSGSGTDFTLTISSVKAEDLAVYYCQQYYSYRTFGGGTKLEIK
notes: Murine monoclonal IgG2a from a hybridoma
B2: R29-7-1C: murine anti-C16orf54 monoclonal antibody, IgG2a; VH SEQ ID NO: 8, VL SEQ ID NO: 10 (antibody, V domains shown)
VH: MRVLILLWLFTAFPGILSDVQLQESGPGLVKPSQSLSLTCTVTGYSITSDYAWNWIRQFPGNKLEWMGYISYSGSIRYNPSLKSRISITRDTSKNQFFLQLNSVTTEDTATYYCAREKYDNYYYAMDYWGQGTSVTVSS
VL: MDSQAQVLMLLLLWVSGTCGDIVMSQSPSSLAVSVGEKVTLSCKSSQNLLYSTNQKNYLAWYQQKPGQSPKLLIYWASTRESGVPDRFTGSGSGTDFTLTISSVKAEDLAVYYCQQYYSYRTFGGGTKLEIK
modifications: R29-7-1C heavy chain variable region; R29-7-1C light chain variable region
B3: R29-67-7A: murine anti-C16orf54 monoclonal antibody, IgG2a; VH SEQ ID NO: 12, VL SEQ ID NO: 14 (antibody, V domains shown)
VH: B2 VH with S71N, S75R, I76T, K83N, I88L, K94T, K118N, N121Y, Y122E, Y123F
VL: B2 VL with D2E, L41M, T53S, S119I
modifications: R29-67-7A heavy chain variable region; R29-67-7A light chain variable region

Tests used:
[1] = molecular target: T1, human C16orf54 (human, UniProt Q6UWD8 1-224); assay: flow cytometry, Granta-519 lymphoma cells (endogenous C16orf54), 1 repeat
T1 construct: also called huC16orf54; hC16orf54
T1 sequence: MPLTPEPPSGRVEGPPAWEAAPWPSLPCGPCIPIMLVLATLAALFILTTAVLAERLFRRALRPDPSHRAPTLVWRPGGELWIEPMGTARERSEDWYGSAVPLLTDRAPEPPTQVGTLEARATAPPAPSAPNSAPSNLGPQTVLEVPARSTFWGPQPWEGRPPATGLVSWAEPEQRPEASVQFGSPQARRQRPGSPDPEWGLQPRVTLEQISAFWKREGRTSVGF

[2] = molecular target: T1, human C16orf54; assay: flow cytometry, HEL92.1.7 leukemia cells (endogenous C16orf54), 3 repeats
[3] = molecular target: T2, cynomolgus monkey C16orf54 (cynomolgus monkey (Macaca fascicularis), UniProt Q6UWD8 1-224 (human entry)); assay: flow cytometry, 10 ug/ml antibody, F279-cyno-C16orf54 cells
T2 construct: also called cyno C16orf54; cyno-C16orf54
T2 chain: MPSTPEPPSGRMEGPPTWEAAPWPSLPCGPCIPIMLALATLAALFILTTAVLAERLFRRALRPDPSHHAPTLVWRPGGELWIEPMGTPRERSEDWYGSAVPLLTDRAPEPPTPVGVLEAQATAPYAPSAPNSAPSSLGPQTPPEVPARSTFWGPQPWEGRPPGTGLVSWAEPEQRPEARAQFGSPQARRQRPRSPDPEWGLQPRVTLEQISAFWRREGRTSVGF
Summary of the method: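 Sarcoma cells transfected with human or cyno C16orf54 were Fc-blocked, stained with antibody for 1 h at 4° C., then PE anti-mouse IgG Fcγ secondary 30 min at 4° C., with TO-PRO-3 viability dye. Value is live-cell PE median fluorescence divided by that of IgG isotype control.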

[4] = molecular target: T1, human C16orf54; assay: flow cytometry titration, KG1 cells (endogenous human C16orf54)
[5] = molecular target: T3, extracellular domain of c16orf54 (amino acids 1-31) fused to human IgG1 Fc (Homo sapiens, UniProt Q6UWD8); assay: C16orf54 peptide-Fc fusion protein ELISA; type: binding; conditions: serial dilution of antibody; HRP-conjugated anti mouse secondary
T3 construct: the extracellular domain of c16orf54 (amino acids 1-31) either N terminal or C-terminal to a human IgG1 Fc domain; made in house; host or cells: 293 T cells, transient; Protein A purification
T3 sequence (Q6UWD8 1-31 limits assumed): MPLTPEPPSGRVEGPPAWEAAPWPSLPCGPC
Experimental: Anti-C16orf54 antibodies which bind to human C16orf54, including antibodies that are crossreactive with cyno C16orf54, were tested for their binding to various peptides derived from C16orf54 that were fused to human IgG (e.g., IgG1) constant regions to generate various peptide-Fc fusion proteins in an Fc-based ELISA. An exemplary Fc sequence comprises an IgG1 Hinge region sequence and IgG1 CH3 and […] domain sequences.
The fusion proteins were transiently expressed in 293 T cells. Protein was purified from the 293 expression supernatants by Protein A-based affinity purification. Exemplary C16 peptide-Fc fusion constructs that were made and purified are shown with their protein yield in Table 38. ELISA assays were performed by coating 384 well plates with the fusion proteins overnight at 4C. Antibodies were analyzed by serial dilution with concentrations ranging from 40 ug/mL to […]. Binding was detected with an HRP-conjugated anti mouse secondary antibody.

[6] = system: C16orf54 ECD peptides; assay: Peptide crossblocking (Table 36); type: binding
[7] = system: KG-1 (acute myeloid leukemia) xenograft; type: in vivo, NOD-SCID mice; conditions: for tumor growth inhibition (in words) / tumor growth inhibition: KG-1 xenograft; for tumor growth inhibition (in words): compared to control IgG, antibodies weekly; for tumor growth inhibition: treatment initiated at 92 mm^3, HB121 IgG isotype negative control; for TGI (tumor growth inhibition) / Mean (tumor volume): Table 42, KG-1 AML model, NOD-SCID mice, weekly administration; for Mean (tumor volume): in mm³ (unit assumed)
Experimental: Subcutaneous tumors are generated by injection of 1×10^7 cancer cells in a mixture of PBS (without magnesium or calcium) and BD Matrigel™ (BD Biosciences) at a 1:1 ratio in the right flank of female SCID or nu^−/− mice. The injected total volume per mouse is […] with 50% being Matrigel (BD Biosciences). Mice are randomized once tumors reach a size between 65-200 mm^3. Antibodies are administered weekly, and body weights and tumors are measured once and twice weekly, respectively. Tumor volume is calculated as described (van der Horst et al. (2009) Neoplasia 11: 355-364). As a negative control, mice are injected with either purified mouse IgG or PBS; or a purified monoclonal antibody that recognizes an antigen other than C16orf54.
Anti-C16orf54 antibodies were tested for their anti-tumor activity in an animal-tumor model. For these studies, the cell line KG-1 (acute myeloid leukemia) was obtained from ATCC and cultured according to the suppliers' protocols. Animals were obtained from Taconic (Hudson, N.Y.). Studies were conducted with anti-C16orf54 antibodies and antibody-drug conjugates (ADCs) of these antibodies.
In these experiments, 4-6 week-old immunodeficient NOD-SCID female mice were used for the KG-1 tumor model. Mice were subcutaneously injected on the right flank with 6×10^6 viable cells (KG-1) in a mixture of PBS (without magnesium or calcium) and BD Matrigel™ (BD Biosciences). Once the tumor reached a size between 65-200 mm^3 mice were randomized. Anti-C16orf54 antibodies were administered weekly, and bodyweights and tumors were measured once and twice weekly, respectively. Tumor volume was calculated as described (van der Horst et al., supra). Experiments were performed on groups of at least eight animals per experimental point.
Statistical significance between treatment and control groups was calculated using the Graphpad Prism® software package and applying Student's two-tailed t-test. A p-value of less than 0.05 was considered significant.

Molecule	Average MFI fold change relative to isotype control [1] [fold]	Average MFI fold change relative to isotype control [2] [fold]	Median fold change relative to IgG control [3] [fold]	EC50 [4] [nM]	binding to peptide-Fc fusion proteins (Fc-based ELISA) [5]	Peptide crossblocking [6]	tumor growth inhibition (in words) [7]	tumor growth inhibition [7] [%]	TGI (tumor growth inhibition) [7] [%]	Mean (tumor volume) [7]
B1	3.8	5	53.7	0.3	–	–	–	–	–	–
B2	–	–	–	–	able to bind to the peptide-Fc fusion proteins	none	inhibitors of tumor growth	69	−8	2813.4
B3	–	–	–	–	able to bind to the peptide-Fc fusion proteins	aa1-31, aa1-15	inhibitors of tumor growth	70	6	3221.4
